The results in this text go back to paper PMC8809517, “Cofactor-independent RNA editing by a synthetic S-type PPR protein”.

Assay in all cases: high-throughput RNA pulldown from lysate on Ni-NTA beads; HRP: 50 mM Tris pH 8, 150 mM NaCl, 1 mM beta-mercaptoethanol, 50 ug/ml BSA, 3 ug/ml yeast RNA, 0.5% heparin; ITC and FP: Tris pH 8, 200 mM KCl, 5% glycerol; MST: 50 mM Tris pH 8, 200 mM NaCl, 1 mM DTT, BSA, heparin, 0.05% Tween 20
Holding throughout (conditions): tags: N-terminal His-eGFP

Data set [1] concerns the target T1, GFP-9S library array, motif 4 ND N98C;D124C (synthetic construct, N98C;D124C).
T1 chain: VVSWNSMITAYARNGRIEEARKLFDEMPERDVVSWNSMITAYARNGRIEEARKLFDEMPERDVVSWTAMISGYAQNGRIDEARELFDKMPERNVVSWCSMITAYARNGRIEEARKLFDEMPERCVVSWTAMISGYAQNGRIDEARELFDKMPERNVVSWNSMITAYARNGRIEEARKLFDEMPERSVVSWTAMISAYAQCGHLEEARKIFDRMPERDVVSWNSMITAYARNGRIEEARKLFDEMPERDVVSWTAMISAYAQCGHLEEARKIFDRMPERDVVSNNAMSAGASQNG

For data set [2], the target named is T2, GFP-9S library array, motif 4 ND N98Y;D124M (synthetic construct, N98Y;D124M).
T2 chain: T1 chain with C98Y, C124M

The target of data set [3] is T3, GFP-9S library array, motif 4 ND N98A;D124C (synthetic construct, N98A;D124C).
T3 chain: T1 chain with C98A

The target of data set [4] is T4, GFP-9S library array, motif 4 ND N98R;D124K (synthetic construct, N98R;D124K).
T4 chain: T1 chain with C98R, C124K

For data set [5], the target named is T5, GFP-9S library array, motif 4 ND N98P;D124G (synthetic construct, N98P;D124G).
T5 chain: T1 chain with C98P, C124G

Where a chain is given by its changes, count along the chain named.

With AUUAGACGUGA (ssRNA) [Cy5-rpoA-G], the Kd in data set [1] (label: 5' Cy5) was found to be 70.5 nM; in data set [2] (label: 5' Cy5), 36.2 nM; in data set [3] (label: 5' Cy5), 73.1 nM; in data set [4] (label: 5' Cy5), 161 nM; in data set [5] (label: 5' Cy5) it was 262 nM.
Taken in the same sequence, the figures for AUUACACGUGA (ssRNA) [Cy5-rpoA] were 264 nM, 40.8 nM, 112 nM, 136 nM and 345 nM.
Take AUUAUACGUGA (ssRNA) [IR-rpoA-U]: the equilibrium dissociation constant (Kd) in data set [1] (label: 5' IRDye 800CW) worked out at 243 nM; in data set [2] (label: 5' IRDye 800CW) it was 154 nM; in data set [3] (label: 5' IRDye 800CW) it was 92.2 nM; in data set [4] (label: 5' IRDye 800CW) it was 202 nM; in data set [5] (label: 5' IRDye 800CW), 778 nM.
Taken in the same sequence, the figures for AUUAAACGUGA (ssRNA) [IR-rpoA-A] were 43.7 nM, 124 nM, 163 nM, 420 nM and 735 nM.

What is called Kd is the free concentration of one partner at which half of the binding sites on the other are occupied at equilibrium, for simple one-to-one binding. Low values mean a tighter complex, high ones a looser complex.
